In PMC12276362 (Nature Communications, 2025) one finds Kd data, which are given here for one molecule.

The target in this test is rhAMPK protein (AMPKα2, Abiocenter Biotechnology) (human (printed only as the prefix rh), UniProt P54646 1-552). Kind of test: BLI. (In general: BLI is a label-free optical method that tracks binding on a fibre tip over time.)
Chain of rhAMPK protein (AMPKα2, Abiocenter Biotechnology) (P54646 whole entry): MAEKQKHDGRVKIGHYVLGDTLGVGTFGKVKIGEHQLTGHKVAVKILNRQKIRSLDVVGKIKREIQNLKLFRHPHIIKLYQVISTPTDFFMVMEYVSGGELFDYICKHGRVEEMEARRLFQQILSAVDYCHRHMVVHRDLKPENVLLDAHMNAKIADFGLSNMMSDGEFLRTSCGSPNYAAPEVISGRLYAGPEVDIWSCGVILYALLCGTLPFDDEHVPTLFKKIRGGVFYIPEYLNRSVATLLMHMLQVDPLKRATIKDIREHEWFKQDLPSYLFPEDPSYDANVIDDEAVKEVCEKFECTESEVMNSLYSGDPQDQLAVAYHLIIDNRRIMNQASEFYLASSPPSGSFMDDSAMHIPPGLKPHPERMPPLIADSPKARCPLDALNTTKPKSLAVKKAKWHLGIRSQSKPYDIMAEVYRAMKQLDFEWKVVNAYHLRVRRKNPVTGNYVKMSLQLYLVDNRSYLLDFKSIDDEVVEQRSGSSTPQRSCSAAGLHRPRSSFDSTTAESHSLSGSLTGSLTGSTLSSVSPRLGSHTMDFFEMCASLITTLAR

B1: rhOTUD1 protein (enzyme, human (printed only as the prefix rh), UniProt Q5VV17 1-481, looked up)
chain: MQLYSSVCTHYPAGAPGPTAAAPAPPAAATPFKVSLQPPGAAGAAPEPETGECQPAAAAEHREAAAVPAAKMPAFSSCFEVVSGAAAPASAAAGPPGASCKPPLPPHYTSTAQITVRALGADRLLLHGPDPVPGAAGSAAAPRGRCLLLAPAPAAPVPPRRGSSAWLLEELLRPDCPEPAGLDATREGPDRNFRLSEHRQALAAAKHRGPAATPGSPDPGPGPWGEEHLAERGPRGWERGGDRCDAPGGDAARRPDPEAEAPPAGSIEAAPSSAAEPVIVSRSDPRDEKLALYLAEVEKQDKYLRQRNKYRFHIIPDGNCLYRAVSKTVYGDQSLHRELREQTVHYIADHLDHFSPLIEGDVGEFIIAAAQDGAWAGYPELLAMGQMLNVNIHLTTGGRLESPTVSTMIHYLGPEDSLRPSIWLSWLSNGHYDAVFDHSYPNPEYDNWCKQTQVQRKRDEELAKSMAISLSKMYIEQNACS
modifications: biotin (EZ-Link Sulfo-NHS-LC-Biotinylation Kit)
On to B1, for which the affinity, expressed as Kd, was 55.6 nM.
